Data: article PMC7281310, “Pharmacokinetic Analysis of Epithelial/Endothelial Cell Barriers in Microfluidic Bilayer Devices with an Air–Liquid Interface” (Micromachines, 2020)

Key:
[1] = Permeability in Transwells without cells; type: in vitro ADME; conditions: no cells; 12-well Transwell, polyester membrane, 0.4 µm pores, 1.12 cm^2; static, top to bottom chamber; 2 h; endothelial cell media; C0 = 60, 3, 1, 3 µM for 4-dextran, C-dextran, 70-dextran, insulin; fluorescence plate reader; n = 3
Procedure: (§1) Commercially-available 12-well Transwells (Corning, Corning, NY, USA), with polyester membranes, were utilized to assess static compound permeability in the absence of flow-induced shear stress. The area of each Transwell membrane was 1.12 cm^2 with 0.4 µm diameter pores and 0.5% porosity. Epithelial cells were seeded in the Transwell top apical compartment at a density of 2 × 10^6 cells/mL. Once the cell monolayer had reached confluency, the 500 µL culture media in the top compartment was replaced with a solution of endothelial cell media mixed with various fluorescently-labeled compounds at a pre-determined initial concentration. The bottom basolateral compartment was filled with 1500 µL fresh endothelial cell culture media, and the Transwell was placed in an incubator for 2 h. Then, liquid samples of 100 µL from both compartments were aliquoted into a 96-well plate. Fluorescent intensities of the collected samples were measured, using a BioTek Synergy 2 Plate Reader (BioTek, Winooski, VT, USA), and converted to molecular concentrations as reported elsewhere.
(§2) Investigation of molecular transport across Transwell membranes is useful in establishing baseline permeability characteristics with no shear stress. […] The molecular concentration at the Transwell bottom chamber CT was then measured after 2 h. […]

HUVEC endothelial cells = assay: Trypan blue cell viability assay, HUVEC; type: cell-based, human; conditions: tested concentration range 10^−3–10^1 µM, 1 h exposure
Procedure: (§3) In general, higher compound concentration is desired since the emitted light intensity increases with molecular concentration enhancing the signal-to-noise ratio and, thereby, improving the reliability of the measured concentration. However, some compounds could be toxic agents to cell cultures; as the signal intensity increases with increasing compound concentration, cells could be adversely affected resulting in cell death. […] Epithelial and endothelial cells were seeded and cultured in 96-well plates for 48 h. The cell cultures were exposed to the selected compounds at various concentrations for 1 h and then washed using PBS. Next, the wells were immersed in 0.2% Trypan Blue for 10 min, after which the cells were fixed using 4% paraformaldehyde and rinsed with PBS. Using a brightfield microscope, dead cells were counted using uptake of trypan blue as a marker for nonviable cells.

[2] = Permeability of agitated vs un-agitated insulin in Transwells without cells; type: in vitro ADME; conditions: agitated 5 min in jet nebulizer, 20 min diffusion time, fluorescence
Procedure: The permeability values, calculated based on concentration measurements in the Transwell bottom compartments after 20 min diffusion time, are shown in Figure 10. […] It is; therefore, critical to maintain the stability of compounds during aerosol generation process in order to obtain reliable concentration–time plots using microfluidic bilayer devices with an air–liquid interface.

A549 epithelial cells [3] = assay: Permeability in Transwells with A549 cell monolayer; type: in vitro ADME, human; conditions: confluent A549 monolayer in apical chamber; 12-well Transwell, polyester membrane, 0.4 µm pores, 1.12 cm^2; static, top to bottom chamber; 2 h; endothelial cell media; C0 = 60, 3, 1, 3 µM for 4-dextran, C-dextran, 70-dextran, insulin; fluorescence plate reader; n = 3
Procedure: as §1, with “elsewhere. […]” for “elsewhere.”
as §2

A549 epithelial cells [4] = assay: Trypan blue cell viability assay, A549; type: cell-based, human; conditions: insulin at 10 µM, 1 h exposure
Procedure: as §3

[5] = parameters: method as in PMID 21641324, PMID 18646033; conditions: under conditions similar to the present experiments; cited from earlier work
some cell types = conditions: 30 min exposure; cited from earlier work
[6] = Turbidity / fibril formation after agitation in jet nebulizer (fluorescent intensity, visual pellet); type: physicochemical
Procedure: In order to generate an aerosol, using a jet nebulizer, a high-pressure air stream is forced through a liquid solution to form a mixture of tiny liquid droplets suspended in air. […] Visual inspection of the upper jet nebulizer platform provides an indirect evidence for insulin fibril formation. The photographs of the nebulizer platform, shown in Figure 8, were taken following 5 min of the solution agitation.
The intensity of the agitated and un-agitated dextran is approximately the same (Ia/Iu ≅ 1), indicating constant transparency with and without agitation, which is consistent with the lack of a dextran pellet on the nebulizer platform. […] The initially lower intensity of the agitated insulin with its low transparency, which is correlated with the pellet formation on the nebulizer platform, can be due to insulin fibril formation.

Insulin: Fluorescently tagged (FITC) insulin, 5.8 kDa, used at 3 µM as potential inhaled therapeutic compound
Permeability in Transwells, Pat [1]: 158 nm/s
Cytotoxicity to HUVEC cells (in words) (HUVEC endothelial cells): did not have adverse effect
Permeability of agitated solution compared with un-agitated solution [2]: clearly lower
Permeability in Transwells, Pat (A549 epithelial cells [3]): 50 nm/s
A549 epithelial cell viability (A549 epithelial cells [4]): 88%
Time of fibril dissociation [5]: < 1 h
Concentration at which some cell types start to exhibit signs of cell death (some cell types): greater than 1 µM
Time to reach steady-state Ia/Iu ([6]; after 5 min agitation in a jet nebulizer): ≤ 20 min
Pellet (solution turbidity) on nebulizer platform, visual inspection ([6]; following 5 min of solution agitation): visible
Time for pellet to disappear ([6]; following 5 min of solution agitation, visual inspection): within half an hour
